Data from patent US20180155451A1 (published 2018).
Numbering of substitutions follows the chain as printed. Numbers in names are those of the source.

B1: H240-FA021/H240-FB059/L73-k0 (antibody, human IgG1, kappa)
heavy 1: QDQLVQSGAEVKKPGASVKVSCKASGFNIKDTYIQWVRQAPGQGLEWMGRIDPLRKQTKYREKFEGRVTITADTSTNTAYMELSSLRSEDTAVYYCVRSGREFDYWGQGTLVTVSSASTKGPSVFPLAPSSKSTSGGTAALGCLVKDYFPEPVTVSWNSGALTSGVHTFPAVLQSSGLYSLSSVVTVPSSSLGTKTYTCNVNHKPSNTKVDKKVEPKSCDKTHTCPPCPAPEYYWGPSVFLFPPKPKDTLMISRTPEVTCVVVDVSDEEPEVKFNWYVDGVEVHNAKTKPREEQYNATYRVVSVLTVLHQDWLNGKEYKCKVSNKALPAPIEKTISKAKGQPREPQVYTLPPSRKEKTKNQVSLTCLVKGFYPSDIAVEWESNGQPENNYKTTPPKLDSDGSFFLYSKLTVDKSRWQQGNVFSCSVMHEALHNRYTQKSLSLSP
heavy 2: QDQLVQSGAEVKKPGASVKVSCKASGFNIKDTYIQWVRQAPGQGLEWMGRIDPLRKQTKYREKFEGRVTITADTSTNTAYMELSSLRSEDTAVYYCVRSGREFDYWGQGTLVTVSSASTKGPSVFPLAPSSKSTSGETAALGCLVEDYFPEPVTVSWNSGALTSGVHTFPAVLQSSGLYSLSSVVTVPSSSLGTQTYICNVNHKPSNTKVDKKVEPKSCDKTHTCPPCPAPELLGGPSVFLFPPKPKDTLMISRTPEVTCVVVDVSHEEPEVQFNWYVDGVEVHNAETKPREEQYNSTYRVVSVLTVLHQDWLNGKEYKCKVSNDALPMPIEETISKAKGQPREPQVYTLPPSREEMTKNQVSLTCLVKGFYPSDIAVEWESNGQPENNYKTTPPVLDSDGSFFLYSKLTVDKSRWQQGNVFSCSVMHEALHNHYTQESLSLSP
light: DIQMTQSPSSLSASVGDRVTITCRASQDIHKYIAWYQQKPGQAPRLLIQYTSTLQPGVPSRFSGSGSGTDYTFTISSLQPEDIATYYCLQYEQLRTFGGGTKVEIKRTVAAPSVFIFPPSDEQLKSGTASVVCLLNNFYPREAKVQWKVDNALQSGNSQESVTEQDSKDSTYSLSSTLTLSKADYEKHKVYACEVTHQGLSSPVTKSFNRGEC
notes: Heterodimerized anti-epiregulin IgG1 antibody
B2: H240-FA020/H240-FB082/L73-k0 (antibody, human IgG1, kappa)
heavy 1: B1 heavy 1 with K396V
heavy 2: B1 heavy 2 with N383E
light: B1 light
notes: as for B1
B3: H240-FA020/H240-FB059/L73-k0 (antibody, human IgG1, kappa)
heavy 1: B1 heavy 1 with K396V
heavy 2: B1 heavy 2
light: B1 light
notes: as for B1
B4: H240-FA020/H240-FB083/L73-k0 (antibody, human IgG1, kappa)
heavy 1: B1 heavy 1 with K396V
heavy 2: B1 heavy 2 with G136E, E137S, S191N, L192F, I198T, N202D, K213T
light: B1 light
notes: as for B1
B5: H240-FA020/H240-FB084/L73-k0 (antibody, human IgG1, kappa)
heavy 1: B1 heavy 1 with K396V
heavy 2: B1 heavy 2 with G136E, E137S, S191N, L192F, I198T, N202D, K213T, N383E
light: B1 light
notes: as for B1
B6: H240-FA021/H240-FB082/L73-k0 (antibody, human IgG1, kappa)
heavy 1: B1 heavy 1
heavy 2: B1 heavy 2 with N383E
light: B1 light
notes: as for B1
B7: H240-Kn113/H240-Hl076/L73-k0 (antibody, human IgG1, kappa)
heavy 1: B1 heavy 1 with K195Q, T198I, Y233E, Y234N, Y348C, K355D, K357L, T365W, K396V, R434H
heavy 2: B1 heavy 2 with E137G, E146K, Q273K, E287K, E355C, M357L, T365S, L367A, Y406V, E438K
light: B1 light
notes: Heterodimerized anti-EREG IgG1: Kn113 is H240-Kn072 with Y234E and Y235N
B8: H240-Kn115/H240-Hl076/L73-k0 (antibody, human IgG1, kappa)
heavy 1: B1 heavy 1 with K195Q, T198I, S238M, Y348C, K355D, K357L, T365W, K396V, R434H
heavy 2: B1 heavy 2 with E137G, E146K, Q273K, E287K, E355C, M357L, T365S, L367A, Y406V, E438K
light: B1 light
notes: Heterodimerized anti-EREG IgG1: Kn115 is H240-Kn072 with S239M
B9: H240-Kn125/H240-Hl076/L73-k0 (antibody, human IgG1, kappa)
heavy 1: B1 heavy 1 with K195Q, T198I, Y234Q, S238M, Y348C, K355D, K357L, T365W, K396V, R434H
heavy 2: B1 heavy 2 with E137G, E146K, Q273K, E287K, E355C, M357L, T365S, L367A, Y406V, E438K
light: B1 light
notes: Heterodimerized anti-EREG IgG1: Kn125 is H240-Kn072 with Y235Q and S239M

molecular target: T1, FcgRIIa H type extracellular domain, C-terminal His tag (human, UniProt P12318 34-217); test: SPR (Biacore), antibody captured on chip, FcgR extracellular domain as analyte, 25 C, 1:1 Langmuir fit; experiment #3
T1 construct: extracellular domain; also called FcγRIIa H; 2aH; not shown: His tag attached to the C terminus
T1 sequence (looked up): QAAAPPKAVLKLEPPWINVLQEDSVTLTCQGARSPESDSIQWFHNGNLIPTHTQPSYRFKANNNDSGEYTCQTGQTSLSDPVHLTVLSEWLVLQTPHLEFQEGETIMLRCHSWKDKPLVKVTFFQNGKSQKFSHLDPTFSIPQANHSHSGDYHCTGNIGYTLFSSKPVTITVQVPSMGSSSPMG
Experimental: (§1) Antibodies of interest were analyzed for the interaction to FcgR according to the method described in Reference Example 8.
(§2) Analysis of interaction between obj ective antibody and the FcγR was carried out using Biacore T100 (GE Healthcare), Biacore T200, Biacore A100, and Biacore 4000. HBS-EP+ (GE Healthcare) was used as the running buffer, and the measurement temperature was set to 25° C. Chips produced by immobilizing the antigen peptide by the amine coupling method to a Series S sensor Chip CM5 (GE Healthcare), chips produced by allowing preliminarily biotinylated antigen peptides to interact with and immobilize onto a Series S Sensor Chip SA (certified) (GE Healthcare), chips produced by immobilizing Protein L (ACTIGEN, BioVision) to Series S Sencor Chip CM5 (GE Healthcare), or chips produced by immobilizing Protein A/G (Thermo Scientific) to Series S Sencor Chip CM5 (GE Healthcare) were used. Antibodies of interest were captured onto these chips, and allowed to interact to each FcγR diluted with running buffer. To regenerate and repeatedly use the chip, the antibodies captured onto the chip were washed off by reacting 10 mM glycine-HCl, pH 1.5.

| Binder | Kd [nM] |
| --- | --- |
| B1 | 92 |
| B2 | 69 |
| B3 | 77 |
| B4 | 65 |
| B5 | 57 |
| B6 | 77 |

molecular target: T2, FcgRIIIa V type extracellular domain, C-terminal His tag (human, UniProt P08637 17-208); test: as above
T2 construct: extracellular domain; also called FcγRIIIa V; 3aV; not shown: His tag attached to the C terminus
Experimental: as §1, §2

T2 sequence (P08637 17-208 F176V limits assumed): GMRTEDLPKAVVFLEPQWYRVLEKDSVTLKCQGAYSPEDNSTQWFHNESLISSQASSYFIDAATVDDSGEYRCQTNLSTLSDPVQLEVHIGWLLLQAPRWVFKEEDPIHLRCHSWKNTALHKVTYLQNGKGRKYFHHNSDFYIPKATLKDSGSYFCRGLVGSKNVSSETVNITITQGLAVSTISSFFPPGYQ

| Binder | Kd [nM] |
| --- | --- |
| B1 | 1.7 |
| B2 | 1.1 |
| B3 | 1.3 |
| B4 | 1.1 |
| B5 | 1 |
| B6 | 1.5 |

molecular target: T3, FcgRIIa R type extracellular domain, C-terminal His tag (human, UniProt P12318 34-217); test: as above
T3 construct: extracellular domain; also called FcγRIIa R; 2aR; not shown: His tag attached to the C terminus
T3 sequence (looked up): T1 sequence (looked up) with H134R
Experimental: as §1, §2

| Binder | Kd [nM] |
| --- | --- |
| B1 | 280 |
| B2 | 270 |
| B3 | 250 |
| B4 | 230 |
| B5 | 220 |
| B6 | 230 |

molecular target: T4, FcgRIIIa F type extracellular domain, C-terminal His tag (human, UniProt P08637 17-208); test: as above
T4 construct: extracellular domain; also called FcγRIIIa F; 3aF; not shown: His tag attached to the C terminus
Experimental: as §1, §2

T4 sequence (P08637 17-208): as the sequence (P08637 17-208 F176V limits assumed) above, with V160F counted along it

| Binder | Kd [nM] |
| --- | --- |
| B1 | 4.4 |
| B2 | 3.4 |
| B3 | 3.5 |
| B4 | 3.4 |
| B5 | 3.5 |
| B6 | 4.2 |

molecular target: T5, FcgRI extracellular domain, C-terminal His tag (human, UniProt P12314 16-292); test: as above
T5 construct: extracellular domain; also called FcγRIa; FcgRIa; not shown: His tag attached to the C terminus
Experimental: as §1, §2

T5 sequence (P12314 16-292): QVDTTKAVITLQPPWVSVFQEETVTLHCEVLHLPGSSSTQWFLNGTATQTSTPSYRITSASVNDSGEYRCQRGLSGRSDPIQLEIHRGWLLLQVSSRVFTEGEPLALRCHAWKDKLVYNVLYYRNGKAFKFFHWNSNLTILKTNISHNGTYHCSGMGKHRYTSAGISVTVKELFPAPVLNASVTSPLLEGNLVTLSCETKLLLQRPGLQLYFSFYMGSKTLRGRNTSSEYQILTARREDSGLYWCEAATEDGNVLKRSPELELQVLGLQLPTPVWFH

| Binder | Kd [nM] |
| --- | --- |
| B1 | 0.069 |
| B2 | 0.079 |
| B3 | 0.038 |
| B4 | 0.12 |
| B5 | 0.068 |
| B6 | 0.06 |

molecular target: T6, FcgRIIb extracellular domain, C-terminal His tag (human, UniProt P31994 43-217); test: as above
T6 construct: extracellular domain; also called FcγRIIb; 2b; not shown: His tag attached to the C terminus
T6 sequence (looked up): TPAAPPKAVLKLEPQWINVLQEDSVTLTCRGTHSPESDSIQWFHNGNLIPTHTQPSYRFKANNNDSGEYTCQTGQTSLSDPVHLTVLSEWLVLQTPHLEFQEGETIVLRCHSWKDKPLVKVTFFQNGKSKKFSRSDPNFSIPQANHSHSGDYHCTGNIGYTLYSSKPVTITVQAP
Experimental: as §1, §2

| Binder | Kd [nM] |
| --- | --- |
| B1 | 1300 |
| B2 | 1200 |
| B3 | 1300 |
| B4 | 1000 |
| B5 | 1400 |
| B6 | 1600 |

molecular target: T7, FcgRIIa H (human, UniProt P12318 34-217); test: SPR (Biacore), antibody captured on chip, FcgR extracellular domain as analyte
T7 construct: extracellular domain; also called FcγRIIa H; FcγRIIa type H; not shown: His tag attached to the C terminus
T7 sequence (looked up): T1 sequence (looked up)
Experimental: (§3) H240-Kn113 (SEQ ID NO: 92) resulting from introduction of Y234E and Y235N into H240-Kn072, H240-Kn115 (SEQ ID NO: 93) resulting from introduction of S239M into H240-Kn072, and H240-Kn125 (SEQ ID NO: 94) resulting from introduction of Y235Q and S239M into H240-Kn072 were prepared according to the method described in Reference Example 1.
as §2

| Binder | Kd [nM] |
| --- | --- |
| B7 | 350 |
| B8 | 62 |
| B9 | 190 |

molecular target: T8, FcgRIIIa V (human, UniProt P08637 17-208); test: as above
T8 construct: extracellular domain; also called FcγRIIIa V; not shown: His tag attached to the C terminus
Experimental: as §3, §2

T8 sequence (P08637 17-208 F176V limits assumed): as the sequence (P08637 17-208 F176V limits assumed) above

| Binder | Kd [nM] |
| --- | --- |
| B7 | 0.62 |
| B8 | 0.43 |
| B9 | 0.37 |

molecular target: T9, FcgRIa (human, UniProt P12314 16-292); test: as above
T9 construct: extracellular domain; Expressed in FreeStyle293 cells and purified; used as analyte in Biacore; also called FcγRIa; FcγRI; not shown: His tag attached to the C terminus
Experimental: as §3, §2

T9 sequence (P12314 16-292): as the sequence (P12314 16-292) above

| Binder | Kd [nM] |
| --- | --- |
| B7 | 0.21 |
| B8 | 0.27 |
| B9 | 0.24 |

molecular target: T10, FcgRIIa R (human, UniProt P12318 34-217); test: as above
T10 construct: extracellular domain; also called FcγRIIa R; FcγRIIa type R; not shown: His tag attached to the C terminus
T10 sequence (looked up): T1 sequence (looked up) with H134R
Experimental: as §3, §2

| Binder | Kd [nM] |
| --- | --- |
| B7 | 600 |
| B8 | 130 |
| B9 | 380 |

molecular target: T11, FcgRIIIa F (human, UniProt P08637 17-208); test: as above
T11 construct: extracellular domain; also called FcγRIIIa F; not shown: His tag attached to the C terminus
Experimental: as §3, §2

T11 sequence (P08637 17-208): as the sequence (P08637 17-208 F176V limits assumed) above, with V160F counted along it

| Binder | Kd [nM] |
| --- | --- |
| B7 | 1.7 |
| B8 | 1.4 |
| B9 | 1.2 |

molecular target: T12, FcgRIIb (human, UniProt P31994 43-217); test: as above
T12 construct: extracellular domain; Expressed in FreeStyle293 cells and purified; used as analyte in Biacore; also called FcγRIIb; CD32B; not shown: His tag attached to the C terminus
T12 sequence (looked up): T6 sequence (looked up)
Experimental: as §3, §2

| Binder | Kd [nM] |
| --- | --- |
| B7 | 5000 |
| B8 | 1300 |
| B9 | 4200 |
